Measurements: patent publication US20240352438A1, “MEANS AND METHODS FOR DETOXIFYING OCHRATOXIN A” (DSM Austria GmbH, priority 2021, published 2024)

How the values were obtained:
[1] = Feeding trial in pigs: OTA concentration in plasma and urine; format: in vivo; details: for % OTA reduction, plasma samples / % OTA reduction, urine samples: day 14
Procedure: To further study an application of the enzymes referred to herein as additives e.g. for feed or food, feeding trials were conducted in pigs. Exemplarily, either of the enzymes having either the amino acid sequence of SEQ ID NO: 1 or 2 were produced by cultivation of E. coli transformants in bioreactors by applying methods known to a person having skill in the art. The cell broth was homogenized and centrifuged. The supernatant was concentrated, dried by lyophilization and formulated as a powder by grinding. The enzymatic activity of the thus obtained lyophilized powder was determined, and the powder was mixed with feed for the feeding trial as described in the following.
Thirteen piglet groups were studied based on the following experimental diet setups: 1) Base feed; 2) base feed+50 ppb OTA; 3) base feed+50 ppb OTA+2.62 U of the enzyme of SEQ ID NO: 1 per kg of feed; 4) base feed+50 ppb OTA+0.29 U of the enzyme of SEQ ID NO: 2 per kg of feed; 5) base feed+500 ppb OTA; 6) base feed+500 ppb OTA+2.62 U of the enzyme of SEQ ID NO: 1 per kg of feed; 7) 500 ppb OTA+0.29 U of the enzyme of SEQ ID NO: 2 per kg of feed.
Each trial group consisted of four piglets weighing approximately 7-8 kg, who were coming out from weaning and adapted to solid diet before being fed the experimental diet as described above. The duration of the feeding trial (i.e. actual days of feeding the experimental diet) was fourteen days. Collectively each trial group consumed around 15 kg of feed. No piglets fell sick to any unexpected disease throughout the feeding trial. Urine and blood samples were collected on day 0, just before starting the experimental diet, and on day 14.
Extraction of OTA was performed from plasma and urine samples for subsequent analysis by HPLC-MS. 200 μL of sample was thoroughly mixed with 800 μL of extraction solution (containing 99% of ethyl acetate and 1% of phosphoric acid, 85%) followed by centrifugation at 19000×g for 5 min for phase separation. 50 μL of upper phase was diluted with 50 μL of acetonitrile, followed by HPLC-MS analysis. The HPLC-MS method as described by Dellafiora et al. (2020, Toxins 12, 258) was used to determine the changes in OTA concentration in the samples taken during the trial upon consumption of the experimental diets. The results are shown in Table 18 using the diet setup numbering as indicated above.

[2] = Pelleting trial: degradation of spiked OTA to OTalpha in mash feed and resuspended pellets; details: for OTalpha %: formed OTalpha; for OTA %: remaining OTA
Procedure: To verify the suitability of the enzymes referred to herein as additives e.g. for feed or food, pelleting trials were conducted. As an example, 1.15 U or 0.06 U of either of the enzymes having either the amino acid sequence of SEQ ID NO: 1 or 2 was homogeneously mixed with one kg of mash feed and subjected to standard feed pelleting process where the temperature of the conditioner was set to either 75, 80, 85, 90 or 95° C. in five separate batches of feed pelleting. The effect of pelleting process on the stability of enzyme was estimated by calculation of percentage degradation of spiked OTA to OTalpha in resuspended pellets. Untreated mash was analyzed applying the following protocol: 50 μL of 10 ppm OTA were spiked to g of dry sample, directly before starting the assay by adding 4.95 mL RO-water (37° C.). The suspension was incubated in 50 mL tubes in an overhead shaker at 37° C. for 60 min. The reaction was stopped by adding 1 mL 6 M phosphoric acid followed by another incubation in a rotary shaker at room temperature for 10 min. Subsequently 30 μL of ^13C-labeled OTA/^13C-labeled OTalpha (each 1 ppm) internal standard were added to each sample and mixed. 30 mL ethyl acetate were added followed by shaking for 60 min at 80 rpm on an overhead shaker. After centrifugation (10 min, 3214 rcf), 8 mL of the organic upper phase were transferred to a new 50 mL tube. 4 mL of 0.1 M NaHCO3 (pH 8.2) were added. After shaking for 1 min at 80 rpm on an overhead shaker, sample was centrifuged again (10 min, 3214 rcf) and 3 mL of the aqueous lower phase transferred to a new 15 mL tube. 70 μL 85% phosphoric acid and 1.5 mL ethyl acetate were added and shaken for 1 min at 80 rpm at an overhead shaker. After centrifugation (10 min, 3214 rcf) 50 μL organic upper phase were added to 50 μL acetonitrile in a silanized HPLC vial and thoroughly mixed. OTA and OTalpha content was determined by HPLC MS/MS method as described by Dellafiora et al. (2020, Toxins 12, 258) to determine the percentage of OTA degradation to form OTalpha.

[3] = 500 ppb OTA+enzyme (2.62 U SEQ ID NO: 1 or 0.29 U SEQ ID NO: 2 per kg of feed)
[4] = base feed+50 ppb OTA+enzyme (2.62 U SEQ ID NO: 1 or 0.29 U SEQ ID NO: 2 per kg of feed)
[5] = mash before pelleting, 1.15 U or 0.06 U enzyme per kg mash feed, 37° C., 60 min

B1: SEQ ID NO: 1: mature species of exemplary OTA-hydrolyzing polypeptide 1, amidohydrolase family; lacks N-terminal amino acids 1-24 of SEQ ID NO: 318 (protein)
chain: APAAPHTVVLRAARMFDGASGKLVDHPQLTIVGNKIVRIAQGDKAEVPAGAEVVDLGDATLLPGFIDAHVHLSGQSSDNWYGDFFDNMMRFPAEQALYGAYYARITLEAGFTSVRDVGSTDWVALGLRNAIDAGKVPGPRMLVSNYAVGSTGGHADQDPIPPHKLPLAGPLQGVCNGPEECRAAVRYQIKYGANVIKFMPSGGVLSLSDPVDAPELSQDEMNAVIGESHAWGRKVAAHAHGDKAAKMAVAAGVDSIEHGSFIEDDTLRAMKAKNVYLVPTISAIAHVEEKIGTFPPVIAEKGRAAAAHLRQTFRHAVQIGVPIALGTDAGVGAHGSNAREFRYMVENGLTPAQALLAGTANAARLLGTFDRVGTLEAGKLADVVAVPGNPIADITVTERPLFVMKDGVVVRRDAVR
modifications: polypeptide 1
OTA concentration in plasma samples, Day 14 [1, 3]: 168 ± 41 ppb
OTA concentration in urine samples, Day 14 [1, 3]: 7 ± 1 ppb
% OTA reduction, plasma samples [1, 3]: 59%
% OTA reduction, urine samples [1, 3]: 65%
OTA concentration in plasma samples, Day 14 [1, 4]: 19 ± 2 ppb
OTA concentration in urine samples, Day 14 [1, 4]: 0 ppb
% OTA reduction, plasma samples [1, 4]: 54%
% OTA reduction, urine samples [1, 4]: 100%
OTalpha % ([2]; after pelleting at 75° C.): 99%
OTalpha % ([2]; after pelleting at 80° C.): 99%
OTalpha % ([2]; after pelleting at 85° C.): 99%
OTalpha % ([2]; after pelleting at 90° C.): 99%
OTalpha % ([2]; after pelleting at 95° C.): 99%
OTalpha % [2, 5]: 99%
OTA % ([2]; after pelleting at 75° C.): 1%
OTA % ([2]; after pelleting at 80° C.): 1%
OTA % ([2]; after pelleting at 85° C.): 1%
OTA % ([2]; after pelleting at 90° C.): 1%
OTA % ([2]; after pelleting at 95° C.): 1%
OTA % [2, 5]: 1%
